Assay results taken from the nanobody polyreactivity screen of Harvey et al. (2022).

Assay: yeast display, Sf9 membrane polyspecificity reagent, FACS + sequencing; frameworks hold sequencing errors
Method in brief: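 Genes from sorted yeast were amplified by colony PCR, read by MiSeq 2 × 250 sequencing and filtered on CDR length. These cells carried a synthetic nanobody library in Saccharomyces cerevisiae BJ5465 and were sorted by FACS into low and high (top ~1%) gates on anti-HA and streptavidin fluorescence. Polyreactivity is labelled according to the gate of origin.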

Row | Sequence | polyreactivity (PSR sort gate)
1 | QVQLVESGGGLVQAGGSLRLSCAASGFIFTLYTMGWYRQAPGKERELVAAIDKNGSTYYADSVKGRFTISRDNAKNTVYLQMNSLKPEDTAVYYCAADDRYRGNREDYWGQGTQVNVSS | low polyreactivity
2 | QVQLVESGGGLVQAGGSLRLSCAASGSIFGKYVMGWYRQAPGKERELVAAITFGGGSTYYADSVKGRFTISRDNAKNTVYFQMNSLKPEDTAVYYCAAKSYDERLYRRPRDYWGQGTQVTVSS | high polyreactivity
3 | QVQLVESGGGLVQAGGSLRLSCAASGITFYPNDMGWYRQAPGKERELVAAITTNDGDTYYADSVKGRFTISRDKAKNTVYLQMNSLKPEDTAVYYCAAASGSTSEYEYWGQGTQVTVSS | low polyreactivity
4 | QVQLVESGGGLVQAGGSLRLSCAASGRTLRWYAMGWYRQAPGKERELVAAINWSGTSTYYADSVKGRFTISRDNAKNTVYLQMNSLKPEDTAVYYCAKRVTWNYDWGQGTQVTVSS | high polyreactivity
5 | PVQLVESGGGLVQAGGSLRLSCAASGFTFDENAMGWYRQAPGITYSGASTYYADSVKGPYTISRANAQNTVYLQMNSLKPEDTAVYYCAAEVVAQMNYWGQGTQVTVSS | low polyreactivity
6 | QVQLVESGGGLVQAGGSLRLSCAASGSIFLYNALGWYRQAPGKERELVAAIYKSGGSTYYADSVKGRFTISRDNEKNSVYLQMNSLKPEDTAVYYCAAGYGSRIRYGSEYDYWGQGTQVTVSS | low polyreactivity
7 | QVQLVESGGGLVQAGGSLRLSCAASGFIFGYYAMGWYRQAPGKERELVAAISSGSITTYADSVKGRFTISRDNAKNTVYLQMNSLKPEDTAVYYCNAVRWFFTFVSSSSGVGHGYWGQGTQVTVSS | low polyreactivity
8 | QVQLVESGGGLVQAGGSLRLSCAASGFTFVRYAMGWYRQAPGKERELVAAISRRGGSTYYADSVKGRFTISRDNAKNTVYLQMNSLKPEDTAVYYCNALPRPSYPFDYWGQGTQVTVSS | high polyreactivity
9 | QVQLEESGGGLVQAGGSLRLSCAASGFNFRKNVMGWYRPAPGKERELVAAISAPGGSTYYAHSVKGRFTISRDNGKNTGYLQMYCLKPEDPAVYFCKTDGYLYQYDYWGQGTQVTVSS | high polyreactivity
10 | QVQLVESGGGLVQAGGSLRLSCAASGSTFTKNAMGWYRQAPGKERELVAAISFSGGSTYYADSVKGRFTISRDNAKNTVYLQMNSLKPEHTAVYYCAADPHRALPRFDYWGQGTQVTVSS | low polyreactivity
11 | QVQLVESGGGLVQAGGSLRLSCAASGNTINVNTMGWYRQAPGKERDLVAAISKRGGSTYYADSVKGRFTISRDNAKNTVYLQMNSLKPEDTAVYYCDKQVSLPRYHYGSAPYGYWGQGTQVTVSS | high polyreactivity
12 | QVQLVESGGGLVQAGGSLPLSIAASGRIFHIYAMGWYRQAPGKERELVAAISGSTSYADSVKGRFTISRDNAKNTVNLQMNSLKPEDKAVYYCAARALLPNGEYWGQGTQVTVSS | low polyreactivity
13 | QVQLVESGGGLVQAGGSLRLSCAASGIIFSRYAMGWYRQAPGKERELVAAISTSGGRTFYADSVKGRFTISRDYAKNTVYLQMNSLKPEDTAVYYCNAEIQRGPGRGGYNYWGQGTQVTVSS | high polyreactivity
14 | QVQLVESCGGLVQAGGSLRLSCAASGYTFGYYAMGWYRQAPGKERELVAAISWRGARTNYADSVKGRFTISRDNAKNNVYLQMNSLKPEDTAVYYCNAPKHNTVYTDRYDYWGQGTQVTVSS | high polyreactivity
15 | QGQLVESGGGLVQAGVSLRLSCAASGSTFRDYAMGWYRQAPGKERELVASITSGGSTNYADSVKGRFTISRDNAKNTVYLQMNSLKPEDTAVYYCGAESMPRWFVRYDYWGQGTQVTVSS | low polyreactivity
16 | QVQLVESGGGLVQAGGSLRLSCASYGRIIGIYAMGWSRPAHGKERELVATITDSDDSTYYADSVKGRFTISRDNAKNTVYLQMNSLKPEDTAVYFCATAFSYGGGAYDYWGHGTQVTVSS | low polyreactivity
17 | QVQLVESGGGLVQAGGSLRLSCAASGSTFSWYAMGWYRQAPGKERELVAAISYSGGTYYADSVKGRFTISRDNAKNTVYLQMNSLKPEDTAVYYCAALRTRYGYDYWGQGTQVTVSS | high polyreactivity
18 | QVQLVESGGGLVQAGGSLRLSCAASGFILGYNAMGWYRQEPGKERELVADITFSGGGTNYADSVKGRFTISRDNAKNTVYLQMNSLKPEDTAVYYCNAAAFSQLRVRYDYWGQGTQVTVSS | low polyreactivity
19 | QVQLVESGGGLVQAGGSLRLSCAASGSIFVGYAMGLYRQAPGKERELVAAISASGGRTYYADSVKGRFTISRDNAKNTVYLQMNSLKPEDTAVYYCATDDYWGRGTQVTVSS | high polyreactivity
20 | QVQLVESGGGVVQAGGSLRLSCAASGRIFDIYDMGWYRQAPGKERELVAAITSGRNTYYADSVKGRFTISRDNAKNTVYLQMNSLKPEDTAVSYCAAYSYPPLLWSYDYWGQGTQVTVSS | low polyreactivity
21 | QVQLVESGGGLVLAGGSLRLSCPASGFTFRYYAMGWSRQAPGKDRELVAAISVSGGSTYYADSVKGRFTISRDNAKNSVYLQMNILKPEDTAVYYCNARRNVGFGYWGQGTQVTVSS | high polyreactivity
22 | QVQLVESGGGLVQAGGSLRLSCAASGSIFPHYAMGWYRQAPGKERELVAAISSGTSTNYADSVKGRFTISRDNAKNTVYLQMNSLKPEDTAVYYCAADIGVYGERREEEFDYWGQGTQVTVSS | low polyreactivity

Row | Sequence | polyreactivity (PSR sort gate)
23 | QVQLVESGGGLVQAGGSLRLSCAASGYTFVLNAMGWYRQAPGKEREFVAAITWSGGSTYYADSVKGRFTISRDNAKNTVYLQMNSLNPEDTAVYYCAATAHYFGEYDYWGQGTQVTVSS | low polyreactivity
24 | QVQLVESGGGLVQAGGSLRLSCAASGRTSGFNTMGWYRQAPGKERELVAAISFSGGSTYYADSVKGRFTISRDNAKNTVYFQMNSLKPEDTAVSYCNALFRYLYRSGDYWRQGTQVTVSS | low polyreactivity
25 | QVQLVESGGGLVQAGGSLRLSCAASGSIFWGNAMGWYRQAPGKERELVAAIDWSGGSTYYADSVKGRFTISRDNAKNTVYLQMNSLKPEDTAVYYCAASGRYDYDYWGQGTQVTVSS | low polyreactivity
26 | QVQLVESGGGLVQAGGSLRLSCAASGSTFYLYDMGWYRQAPGKEREMVAAISWSSGSTYYADSVKGRFTISRDNAKNTVYLQMNSLKPEETAVYYCAAGPSDTEYWLFDYWGQGTQVTVSS | high polyreactivity
27 | QVQLVESGGGLVQAGGSLRLSCAASGRTFNGNTMGWYRQAPGKERQLVAAISRNGGRTYYADSVKGRFTISRDNAKNTVYLQMNSLKPEDTAVYYCATVYRPGGVYGYWGQGTQVTVSS | high polyreactivity
28 | QVQLLESGGGLVQAGGSLRLTCAASGSTFPDYAMGWYRQAPGKEREFVASITWSDGSTYYADSVKGRFTISRDNAKNSVYLQMNRLKQEDTAVYYCNADYVYYYIPVVYEYDYWGQGTQVTVSS | high polyreactivity
29 | QVQLVDSGGGLVQAGGSLRLSCAASGSIIYDYPMGWYRQAPGKEREFVASIDWRGDSTYYADSVKGRFTNSRDNAKNTVYLQMNRLKPEDTAVYYCAADRSYQYYFYEDYGYDYWGQGTQVTVSS | low polyreactivity
30 | QVHLVESGGGLVQAGGSLRLSCAASGSIFPRNAMGWYRQAPGKERELVAAISSGGGRTYYADSVKGRFTISRDNAKNTVYLQMNSLKPVDTAVYYCAREVWGYRWLYPVYILDYWGQGTQVTVSS | high polyreactivity
31 | QVQLVESGGGLVQAGGSLRLSCAASGRTFPVYAMGWYRQAPGKERELVAAITRSDDSTYYADSVKGRFTISRDNAKNTVYLQMNSLKPEDTAVYYCARRSRESYEYDYWGQGTQVTVSS | low polyreactivity
32 | QVQLVESGGGLVQAGGSLRLSCAASGIIFDYTAMGWYRQAPGKERELVAAITSTDNTNYADSVKGRFTISRDNAKNTVYLQMNSLKPEDTAVYYCNTDYWLSVVYAMDYWGQGTQVTVSS | low polyreactivity
33 | QVQLVESGGGLVQAGGSLRLSCAASGSTFYYYAMGWYRQAPGKEMELVAAINWSGASTYYADSVKGRFTISRDNAKNTVYLQMNSLIPEDTAVYYCAAGYAGGYGVTFDYCGQGTQVTVSS | low polyreactivity
34 | QVQLVESGGGLVQSGGSLRLSCAAYGLILTHYSMGRYRQAPGKESELVAAIDYGGGSNTYYADSVKGLFTISRDNAKNTDYLQMNSLKPEDTAVYYCAAYRAGNSYDPRLNYWGQGTQVTVSS | high polyreactivity
35 | QVQLVESGGGLVQAGGSLRLRCAASGFIFDYYAMGWYRQAPGKEWELVAGISWSGGSTYYADSVKGRFTISRDNAKNTVYLQMNSLKPEDTAVYYCATDDYLVIFEYDYWGQGTQVTVSS | low polyreactivity
36 | QVQLVESGGGLVQAGGSLRLSCAASGRIFGYYAMGWYRQAPGKERELVAPITKTVGGTYYADSVKGRFTISRDNAKNTVYLQMNSLKPEDTAVYYCAARVWTGNGRSKGAYDYWGQGTQVTVSS | high polyreactivity
37 | QVQLVESGGGLVQAGGSLRLSCAASGITFFRNARGWYRQAPGKEREFVATISRSSGSTYADSVKGRFTISRDNAKNTVYLQMNSLKPEDTAVYYCAAERTYSDSLSFDHWGQGTQVTVSS | low polyreactivity
38 | QVQLVESGGGLVQAGGSLRLSCAACGRTLRTYGMGWYRQAPGKERELVATITRRGDSTYYADSVKGRFTISRDNAKNTVYLQMNSLKPEDTAVYYSNTASYGRHQFRKSSKMDYWGQGTQVTVSS | high polyreactivity
39 | QVQLVESGGGLVQAGGSLRLSCAASGFTLLKNAMRGYRQAPGKERELVAAIRVSGGSTYYADSVKGRFTISRDNAKNSVYLQMNSLKPEDTAVYYCAAKYLRWPVSTMYYWGQGTQVTVSS | high polyreactivity
40 | QVQLVESGGGLVQAGGSLRLSCAASGRIFRWYAMGWYRPAPGKERELVAAISRSGTSTYYADSVKGRFTISRDNAKNTVYLQMNSLKPEDTAVYDCAADRTGRIVLSPTDEMDYWGQGTQVTVSS | low polyreactivity
41 | QVQLVESGGGLVQAGGSLSLSCAASGSIFASNTMGWYRPAPGKERELVAGITKIGSSTYYADSVKGRFTISRDNAKNTVYLQMNSLKPEDTAVYYCNAYGPNIYSSRYDYWGQGTQVTVSS | low polyreactivity
42 | QVQLVESGGGLVQAGGSLRLSCAASGSIFRNNAMGWYRQAPGKERELVASISSSGDSTYADSVKGRFTISRDNAKNTVYLQMNSLKPEDTAVYYCARDYLSPYAVDYWGQGTQVTVSS | low polyreactivity
43 | QVQLVESGGGLVQAGGSLRLSCAASGRIFWYYAMGWYRQAPGKERELVATISSRSGSTYYADSVKGRFTISRDNAKNTVNLQMNSLKPEDTAVYYCAAGTPYYLGYRHNYWGQGTQVTVSS | high polyreactivity
